Data taken from US20250109186A1.
Read-outs that look alike come from different tables or passages of the source.

Experiments:
[1] = target: SARS-CoV-2 Omicron BA.1 spike ectodomain (residues 14-1207) with C-terminal His tag (SARS-CoV-2 Omicron BA.1 subvariant)
[2] = target: SARS-CoV-2 Omicron XBB.1.5 spike ectodomain (residues 14-1207) with C-terminal His tag (SARS-CoV-2 Omicron XBB.1.5 subvariant)
[3] = target: SARS-CoV-2 Omicron BA.1 RBD (residues 316-526) with C-terminal His tag (SARS-CoV-2 Omicron BA.1 subvariant); test: SPR (Biacore S200), CM5 chip, His-tagged proteins, 1:1 model
[4] = target: SARS-CoV-2 Omicron XBB.1.5 RBD (residues 315-525) with C-terminal His tag (SARS-CoV-2 Omicron XBB.1.5 subvariant); test: as above
[5] = target: SARS-CoV-2 Omicron BA.1 RBD (residues 316-526) with C-terminal His tag (SARS-CoV-2 Omicron BA.1 subvariant)

B1: Nanosota-3A, HA- and His-double-tagged (VHH)
VHH: QVQLQESGGGLVQAGGSLRLSCAASGSIFSPNTMGWFRQALGKQREMVAVISSIASTQYANFVKGRFTITRDNTKNTVHLQMNSLIPEDTAVYYCYAVDKSQDYWGQGTQVTVSS
**Q.** B1 was tested. Which EC50 (read off the curve) [1] did it give?
**A.** The EC50 (read off the curve) was 0.1 µg/mL.

B2: Nanosota-3C with His6 tag and HA tag (VHH)
VHH: QVQLQESGGGLVQAGGSLRLSCAASGSIFSPNTMGWFRQALGKQREGVAFISSIASTSYWLPVKGRFTITRDNTKNTVHLQMNSLIPEDTAVYYCYAVDKSQDYWGQGTQVTVSS
**Q.** Which EC50 (read off the curve) [2] does the source give for B2 here?
**A.** Its EC50 (read off the curve) is 0.03 µg/mL.

**Q.** And the Kd [3]?
**A.** The Kd was 27.3 nM.

**Q.** What about the Kd [4] of the same binder?
**A.** The Kd was 2.04 nM.

B3: Nanosota-3A with C-terminal His tag (VHH)
VHH: QVQLQESGGGLVQAGGSLRLSCAASGSIFSPNTMGWFRQALGKQREMVAVISSIASTQYANFVKGRFTITRDNTKNTVHLQMNSLIPEDTAVYYCYAVDKSQDYWGQGTQVTVSS
**Q.** With B3 as the binder, how does the Kd [5] read?
**A.** Its Kd is 17.3 nM.

B4: Nanosota-3B, HA- and His-double-tagged (VHH)
VHH: QVQLQESGGGLVQAGGSLRLSCAASGSIFSPNTMGWFRQALGKQREMVAFISSIASTSYANFVKGRFTITRDNTKNTVHLQMNSLIPEDTAVYYCYAVDKSQDYWGQGTQVTVSS
**Q.** For B4, which EC50 (read off the curve) [1] is on record?
**A.** Its EC50 (read off the curve) is 0.02 µg/mL.
